Article PMC7699647, “Nucleocapsid protein of SARS-CoV-2 phase separates into RNA-rich polymerase-containing condensates”

Biological target: nsp12;nsp7;nsp8 (SARS-CoV-2;SARS-CoV-2;SARS-CoV-2, UniProt P0DTD1;P0DTD1;P0DTD1 4393-5324;3860-3942;3943-4140, ||)
Assay: size exclusion chromatography; 20 mM Na-HEPES pH 7.4, 100 mM NaCl, 1 mM MgCl2, 1 mM TCEP; NMR: 50 mM NaP, 0.01% NaN3, 5% D2O, 5 C; phase separation: 20 mM NaPi pH 7.5
Conditions: protein: recombinant;recombinant;recombinant; tags: 6xHis-MBP removed by TEV;His tag removed by TEV;His tag removed by TEV; copies: 1;1;2; label: 5' 6-FAM on strand 2; 5' overhang 11 nt on strand 1; other end blunt

B1: RdRp RNA scaffold (minimal RNA hairpin) (dsRNA)
RNA 1: UUUUCAUGCAUCGCGUAGGCUCAUACCGUAUUGAGA
RNA 2: UCUCAAUACGGUAUGAGCCUACGCG
binding result: binds
